Assay results published in publication PMC9889962 (Antibody Therapeutics, 2023).

Columns and labels:
[1] = target: SARS-CoV-2 Alpha variant B.1.1.7, S1 subunit (SARS-CoV-2); test: SPR; settings: both partners purified
[2] = target: SARS-CoV-2 Omicron B.1.1.529 RBD only (SARS-CoV-2, UniProt P0DTC2); test: SPR; settings: both partners purified

B1: LiVE-Longer YTE chimera (ACE-2 LVE/STR-YTE fusion protein) (Fc fusion)
chain: QSTIEEQAKLFLDKFNVEAEDLFYQSSLASWNYNTNITEENVQNMNNAGDKWSAFLKEQSTLAQMYPLQEIQELTVKLQLQALQQNGSSVLSEDKSKRLNTILNTMSTIYSTGKVCNPDNPQECLLLEPGLNEIMANSLDYNERLWAWESWRSEVGKQLRPLYEEYVVLKNEMARANHYEDYGDYWRGDYEVNGVDGYDYSRGQLIEDVEHTFEEIKPLYEHLHAYVRAKLMNAYPSYISPIGCLPAHLLGDMWGRFWTNLYSLTVPFGQKPNIDVTDAMVDQAWDAQRIFKEAEKFFVSVGLPNMTQGFWENSMLTDPGNVQKAVCHPTAWDLGKGDFRILMCTKVTMDDFLTAHHEMGHIQYDMAYAAQPFLLRNGANEGFHEAVGEIMSLSAATPKHLKSIGLLSPDFQEDNETEINFLLKQALTIVGTLPFTYMLEKWRWMVFKGEIPKDQWMKKWWEMKREIVGVVEPVPHDETYCDPASLFHVSNDYSFIRYYTRTLYQFQFQEALCQAAKHEGPLHKCDISNSTEAGQKLFNMLRLGKSEPWTLALENVVGAKNMNVRPLLNYFEPLFTWLKDQNKNSFVGWSTDWSPYADQSIKVRISLKSALGDKAYEWNDNEMYLFRSSVAYAMRQYFLKVKNQMILFGEEDVRVANLKPRISFNFFVTAPKNVSDIIPRTEVEKAIRMSRSRINDAFRLNDNSLEFLGIQPTLGPPNQPPVS
Work on B1 yielded a Kd [1] of 0.093 nM and a Kd [2] of 0.402 nM.
